Data on 37 molecules can be found in publication PMC9352680, “A comprehensive thermodynamic model for RNA binding by the Saccharomyces cerevisiae Pumilio protein PUF4”.

One may read the Kd as a measure of binding affinity in units of concentration. Low readings indicate tighter binding, high ones weaker binding.

The data set deals with T1, PUF4 RNA-binding domain (Saccharomyces cerevisiae, UniProt P25339 537-888).
T1 sequence: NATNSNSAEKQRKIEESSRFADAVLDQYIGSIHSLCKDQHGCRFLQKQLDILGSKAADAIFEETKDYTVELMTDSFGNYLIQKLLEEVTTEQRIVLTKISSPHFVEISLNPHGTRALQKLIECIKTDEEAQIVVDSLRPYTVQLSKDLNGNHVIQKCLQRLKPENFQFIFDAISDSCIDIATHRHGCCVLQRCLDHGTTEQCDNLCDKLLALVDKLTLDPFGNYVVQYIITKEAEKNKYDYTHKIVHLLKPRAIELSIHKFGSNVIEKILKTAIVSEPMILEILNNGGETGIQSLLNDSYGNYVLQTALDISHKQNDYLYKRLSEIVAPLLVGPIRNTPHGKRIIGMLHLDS
Briefly: Mg; RNA-MaP; 20 mM Na-HEPES pH 7.4, 30 mM KOAc, 0.75 mM MgCl2, 0.1% Tween-20, 5% glycerol, 0.1 mg/mL BSA, 2 mM DTT; 25 C; 0.0125-409.6 nM protein. As to conditions: tags: N-His6-TEV cleaved; C-SNAP kept, Cy3B-labelled; label: tethered on chip by stalled RNA polymerase.

Residue numbers refer to the chain shown, from its start. Names and notes keep the numbering of the source.

B1: Ie_S2_P3E.2_K3.1_C3.2_[+-1CCC]_H3.1_A3.1_F3.1_T3.2 (ssRNA)
RNA: UUUGAUUAAUAUGAUAUCGUUCUUUCUCUCCCUGUAUAUAUAUUCUUUCUCGAUAUCAUAUUAAUCUUU
Consider B1, for which the Kd was found to be 0.662 nM.

B2: Ie_S2_P3E.2_K3.1_C3.2_H3.1_[+1TCT]_A3.1_F3.1_T3.2 (ssRNA)
RNA: B1 RNA with C30U, C31U
For the molecule B2, the Kd came to 1.12 nM.

B3: Ie_S2_P3E.2_K3.1_C3.2_H3.1_[+1TTC]_A3.1_F3.1_T3.2 (ssRNA)
RNA: B1 RNA with C30U, C31U, C32U, U33C
Molecule B3 registered a Kd of 36.5 nM.

B4: Ie_S2_P3E.2_K3.1_C3.2_H3.1_[+1CCC]_A3.1_F3.1_T3.2 (ssRNA)
RNA: B1 RNA with C30U, U33C
Regarding B4, the dissociation constant (Kd) stood at 31.2 nM.

B5: Ie_S2_P3E.2_K3.1_C3.2_H3.1_[+1TCC]_A3.1_F3.1_T3.2 (ssRNA)
RNA: B1 RNA with C30U, C31U, U33C
In turn, B5 showed a Kd of 44.3 nM.

B6: Ie_S2_P3E.2_K3.1_C3.2_H3.1_[+1CCT]_A3.1_F3.1_T3.2 (ssRNA)
RNA: B1 RNA with C30U
With B6, binding was characterised by a dissociation constant (Kd) of 1.05 nM.

B7: Ib_S2_P3E.1_K3.1_C3.1_H3.1_A3.1_[T5C]_F3.1_[T7A]_T3.1 (ssRNA)
RNA: UUUGAUUAAUAUGAUAUCGUUCUUUCUUGUACAAAUUCUUUCUCGAUAUCAUAUUAAUCUUU
For the molecule B7, the dissociation constant Kd was 58.4 nM.

B8: Ib_S2_P3E.1_K3.1_C3.1_H3.1_A3.1_[A6G]_F3.1_[T7C]_T3.1 (ssRNA)
RNA: B7 RNA with C32U, A33G, A34C
The molecule B8 came in with a Kd of 198 nM.

B9: Ic_S2_P3E.1_K3.1_C3.1_H3.1_A3.1_[A6C]_F3.1_[T7C]_T3.1 (ssRNA)
RNA: B7 RNA with C32U, A33C, A34C
As for B9, binding was characterised by a dissociation constant (Kd) of 148 nM.

B10: Ie_S2_P3E.2_K3.1_C3.2_H3.1_[+1C]_A3.1_F3.1_T3.2 (ssRNA)
RNA: UUUGAUUAAUAUGAUAUCGUUCUUUCUCUUCGUAUAUAUAUUCUUUCUCGAUAUCAUAUUAAUCUUU
B10: the affinity, expressed as Kd, was 34.5 nM.

B11: Ie_S2_P3E.2_K3.1_C3.2_H3.1_[+2T]_A3.1_F3.1_T3.2 (ssRNA)
RNA: B10 RNA with C31G, G32U
As to B11, binding was put at a Kd of 8.08 nM.

B12: Ie_S2_P3E.2_K3.1_C3.2_[+-2TCTCT]_H3.1_A3.1_F3.1_T3.2 (ssRNA)
RNA: UUUGAUUAAUAUGAUAUCGUUCUUUCUCUCUCUUUGUAUAUAUAUUCUUUCUCGAUAUCAUAUUAAUCUUU
For B12, the Kd was found to be 1.24 nM.

B13: Ie_S2_P3E.2_K3.1_C3.2_[+-2CCTCT]_H3.1_A3.1_F3.1_T3.2 (ssRNA)
RNA: B12 RNA with U29C
For B13, the Kd is 1.06 nM.

B14: Ie_S2_P3E.2_K3.1_C3.2_[+-1CCCTT]_H3.1_A3.1_F3.1_T3.2 (ssRNA)
RNA: B12 RNA with U31C
For the molecule B14, binding was put at a Kd of 0.572 nM.

B15: Ie_S2_P3E.2_K3.1_C3.2_[+-1TTCCT]_H3.1_A3.1_F3.1_T3.2 (ssRNA)
RNA: B12 RNA with C30U, U33C
In turn, B15 had a Kd of 0.987 nM.

B16: Ie_S2_P3E.2_K3.1_C3.2_[+-2CCCTT]_H3.1_A3.1_F3.1_T3.2 (ssRNA)
RNA: B12 RNA with U29C, U31C, C32U
Molecule B16 showed a Kd of 0.802 nM.

B17: Ie_S2_P3E.2_K3.1_C3.2_H3.1_[+1TTCCT]_A3.1_F3.1_T3.2 (ssRNA)
RNA: B12 RNA with C30U, C32U, U33C, U34C
As to B17, the Kd came to 1.16 nM.

B18: Ie_S2_P3E.2_K3.1_C3.2_[+-1TCTCT]_H3.1_A3.1_F3.1_T3.2 (ssRNA)
RNA: B12 RNA with C30U, U31C, C32U, U33C
For B18, binding was put at a Kd of 1.04 nM.

B19: Ie_S2_P3E.2_K3.1_C3.2_H3.1_[+1CCTCT]_A3.1_F3.1_T3.2 (ssRNA)
RNA: B12 RNA with C30U, U31C, U34C
Turning to B19, binding was characterised by a dissociation constant (Kd) of 1.11 nM.

B20: Ie_S2_P3E.2_K3.1_C3.2_[+-1CCTCT]_H3.1_A3.1_F3.1_T3.2 (ssRNA)
RNA: B12 RNA with U31C, C32U, U33C
In the case of B20, the affinity, expressed as Kd, was 0.967 nM.

B21: Ie_S2_P3E.2_K3.1_C3.2_H3.1_[+1CCCTT]_A3.1_F3.1_T3.2 (ssRNA)
RNA: B12 RNA with C30U, U31C, U33C
In turn, B21 displayed a Kd of 1.15 nM.

B22: Ie_S2_P3E.2_K3.1_C3.2_H3.1_[+1TCTCT]_A3.1_F3.1_T3.2 (ssRNA)
RNA: B12 RNA with C30U, U34C
As to B22, binding was characterised by a dissociation constant (Kd) of 1.44 nM.

B23: Ie_S2_P3E.2_K3.1_C3.2_[+-1CC]_H3.1_A3.1_F3.1_T3.2 (ssRNA)
RNA: UUUGAUUAAUAUGAUAUCGUUCUUUCUCUCCUGUAUAUAUAUUCUUUCUCGAUAUCAUAUUAAUCUUU
For B23, the Kd stood at 0.923 nM.

B24: Ie_S2_P3E.2_K3.1_C3.2_H3.1_[+2TT]_A3.1_F3.1_T3.2 (ssRNA)
RNA: B23 RNA with C30U, C31G, G33U
Consider B24, for which the Kd is 14.6 nM.

B25: Ie_S2_P3E.2_K3.1_C3.2_H3.1_[+1TC]_A3.1_F3.1_T3.2 (ssRNA)
RNA: B23 RNA with C30U, C31U, U32C
B25 came in with a Kd of 39 nM.

B26: Ie_S2_P3E.2_K3.1_C3.2_H3.1_[+3CT]_A3.1_F3.1_T3.2 (ssRNA)
RNA: B23 RNA with C30U, C31G, G33C
B26 returned an equilibrium dissociation constant (Kd) of 28.3 nM.

B27: Ie_S2_P3E.2_K3.1_C3.2_H3.1_[+2CC]_A3.1_F3.1_T3.2 (ssRNA)
RNA: B23 RNA with C30U, C31G, U32C, G33C
With B27, binding was put at a Kd of 102 nM.

B28: Ie_S2_P3E.2_K3.1_C3.2_H3.1_[+2CT]_A3.1_F3.1_T3.2 (ssRNA)
RNA: B23 RNA with C30U, C31G, U32C, G33U
Consider B28, for which the Kd came out at 93 nM.

B29: Ie_S2_P3E.2_K3.1_C3.2_[+-1CTCT]_H3.1_A3.1_F3.1_T3.2 (ssRNA)
RNA: UUUGAUUAAUAUGAUAUCGUUCUUUCUCUCUCUUGUAUAUAUAUUCUUUCUCGAUAUCAUAUUAAUCUUU
Molecule B29 showed a dissociation constant (Kd) of 0.703 nM.

B30: Ie_S2_P3E.2_K3.1_C3.2_[+-1TTCC]_H3.1_A3.1_F3.1_T3.2 (ssRNA)
RNA: B29 RNA with C30U, U33C
B30 displayed a Kd of 1.28 nM.

B31: Ie_S2_P3E.2_K3.1_C3.2_[+-1CCTC]_H3.1_A3.1_F3.1_T3.2 (ssRNA)
RNA: B29 RNA with U31C, C32U, U33C
Consider B31, for which the Kd turned out to be 0.786 nM.

B32: Ie_S2_P3E.2_K3.1_C3.2_H3.1_[+1CCCT]_A3.1_F3.1_T3.2 (ssRNA)
RNA: B29 RNA with C30U, U31C, U33C
In the case of B32, the Kd worked out at 0.515 nM.

B33: Ie_S2_P3E.2_K3.1_C3.2_[+-2CCTC]_H3.1_A3.1_F3.1_T3.2 (ssRNA)
RNA: B29 RNA with U29C
As for B33, the Kd is 0.683 nM.

B34: Ie_S2_P3E.2_K3.1_C3.2_H3.1_[+1CCTC]_A3.1_F3.1_T3.2 (ssRNA)
RNA: B29 RNA with C30U, U31C, U34C
Molecule B34 yielded a Kd of 52.3 nM.

B35: Ie_S2_P3E.2_K3.1_C3.2_[+-2TTCC]_H3.1_A3.1_F3.1_T3.2 (ssRNA)
RNA: B29 RNA with C30U, U31C
B35 showed a Kd of 0.819 nM.

B36: Ie_S2_P3E.2_K3.1_C3.2_[+-2CCCT]_H3.1_A3.1_F3.1_T3.2 (ssRNA)
RNA: B29 RNA with U29C, U31C, C32U
The molecule B36 came in with a Kd of 0.468 nM.

B37: Ie_S2_P3E.2_K3.1_C3.2_H3.1_[+1CTCT]_A3.1_F3.1_T3.2 (ssRNA)
RNA: B29 RNA with C30U, U31C, C32U, U33C
Molecule B37 registered a Kd of 0.882 nM.
